These results are taken from patent US20160052980A1, “CRP40 FRAGMENTS FOR THE TREATMENT OF NEUROLOGICAL DISORDERS” (CRP40 INC., priority 2013, published 2016).

Experiment [1] is described as follows: Competitive radioligand binding of [3H]-DA in the presence of cold DA. Conditions: 1 nM radioligand, 10 μg protein, range of unlabeled DA. Here is the method: (§1) Methods. The ability of cold DA to displace bound tritiated dopamine ([3H]-DA) in CRP40, P2P4, or heat-shock protein 47 (a control heat-shock protein that plays a role in collagen synthesis) was assessed by competitively binding [3H]-DA in the presence of different concentrations of unlabeled DA or apomorphine (in 0.1% ascorbic acid) using the same methodology as in (Gabriele et al., 2009). […] At the end of incubation, the bound and free ligands were separated by vacuum filtration through Whatman GF/B filters. The filters were washed with 3×5 ml of Tris-EDTA buffer and the radioactive counts were determined on a Beckman scintillation counter. The Assay Buffer was prepared by adding the following components to 500 ml of double distilled water: 25 ml 1M Tris-HCl (pH 8; 50 mM), […] (1 mM), 100 mM PMSF in ethanol (0.1 mM), 0.508 g MgCl2·6H2O (5 mM), 0.0077 g DTT (0.1 mM), 0.050 g Bacitracin (100 μg/ml), and 0.0025 g
(§2) Soybean Trypsin (5 μg/ml). The final pH was adjusted to 7.4. The filtration Buffer was prepared by adding the following components to 2 L of double distilled water: 100 ml 1M Tris-HCl (pH 8; 50 mM), and 4 ml 500 mM EDTA (1 mM). The final pH was adjusted to 7.4. Statistical analysis of the data was performed utilizing Graph Pad Prism 6.0 software. […]

Experiment [2] deals with 6-OHDA rats. As to the kind of experiment: 6-OHDA rat model, apomorphine-induced rotational behaviour. The experiment is classed as in vivo. The following applies: injection in left striatum; apomorphine 0.5 mg/kg s.c.; rotations counted over 10 minutes; versus controls. Here is the method: 6-Hydroxydopamine (or 6-OHDA) animal model of dyskinesia and oxidative stress: The 6-OHDA model was chosen for this study as this model is characterized by oxidative stress and degeneration of DA neurons, similar to the condition in human idiopathic PD patients and is a well-known preclinical animal model of PD.
6-OHDA animals, male Sprague-Dawley rats from Charles River (Raleigh, N.C., USA), were prepared by hemi-lateral lesioning of the A9 dopaminergic pathway by injecting 6-OHDA toxin in the substantia nigra par compacta (SNc) region of the rat brain. This unilateral nigrostriatal degeneration cause assymetry in motor behaviours due to imbalanced dopimanergic activity between striata. […] Baseline rotational behavior and locomoter testing were performed before surgical intervention.
The protocol for lesioning is synonymous with our 6-OHDA stereotaxic injection protocol found in Modi et al., (1996). Rats were sent to the McMaster University animal facility and allowed to acclimatize to the colony room for 1 week following arrival. Each rat was handled by the same researcher daily for 7 days before the start of the experiment. Animals were then tested for baseline apomorphine-induced rotations (tested during light hours), and locomotor activity (tested during dark hours) under apomorphine challenge treatment. Animals were then split into groups and injected with CRP40, CRP40 fragments and peptides, and controls. Animals were housed and tested in compliance with the guidelines described in the Guide to the Care and Use of Experimental Animals (Canadian Council on Animal Care, 1984; 1993).
6-OHDA rats were injected in the left striatum with one of the various fragments via stereotaxic surgery. […] Coordinates for striatal injections of treatment are as follows: A/P +0.7 mm, M/L +3.0 mm, and D/V −5.0 mm. A 25 μl Hamilton syringe with a 22 gauge 2 inch blunt needle was used to inject treatments at a rate of 1 μl/min.
Apomorphine injection causes full body rotational behaviour in the direction contralateral to the 6-OHDA lesion. The total number of rotations per fixed time period is used as a measure of improving or worsening symptomology. A holding chamber in which the animal is confined to a circular shaped floor is used to count rotations, as this is an optimal arrangement for these experiments compared to an open field box. 0.5 mg/ml Apomorphine (Sigma: A4393) was dissolved in 0.9% saline with 0.1% ascorbic acid. Animals were injected subcutaneously with apomorphine (0.5 mg/kg body weight). Animals were placed in a clear plastic cylindrical holding tank and allowed 5 minutes for habituation. Following habituation, 10 minutes was allotted and a cell counter was used to record the number of rotations.

A short description of experiment [3]: Competitive radioligand binding of [3H]-DA in the presence of cold apomorphine. Conditions: 1 nM radioligand, 10 μg protein, range of unlabeled apomorphine. Here is the method:
as §1, §2

The test system of experiment [4] is SH-SY5Y cells. The experiment is described as follows: ATP-Glo Bioluminometric Cell Viability Assay with MG-132 proteasomal inhibitor. The experiment is classed as cell-based. Conditions: for preservation of ATP levels and cell viability under proteasomal stress: overexpression in SH-SY5Y cells, MG-132; for cell viability in basal condition versus normal non-transfected SH-SY5Y cells: no MG-132, p<0.0001. An excerpt: The ability of CRP40- and mortalin-transfected SH-SY5Y cells to maintain mitochondrial homeostasis, specifically energy production and ATP levels, was examined using the ATP-Glo™ Bioluminometric Cell Viability Assay Kit. MG-132 was used to inhibit proteasomal function and cause increased oxidative stress, which would compromise mitochondrial function, as well as the processes of energy production. The quantitation of ATP levels was thus used as a measure of cell viability.
FIG. 7 summarizes the results of the adenosine triphosphate assays. […] Mortalin was used as a positive control in this assay. […] The data are representative of mean±S.D. of experiments for each condition performed twice, in triplicate.

Experiment [5] relates to SH-SY5Y cells. The experiment is described as follows: OxiSelect Intracellular ROS Assay, H2O2-induced oxidative stress in transfected cells. The experiment is classed as cell-based. Conditions: overexpression in transfected SH-SY5Y cells; 500 μM H2O2; normal cells had increased ROS. Here is the method: The ability of CRP40- and mortalin-transfected SH-SY5Y cells to protect against the harmful effects of mitochondrial ROS in comparison to normal non-transfected SH-SY5Y cells was measured using the OxiSelect™ Intracellular ROS Assay Kit (Green Fluorescence). H2O2 treatment was used to induce oxidative stress in the assay. Increased fluorescence in this assay corresponded to greater ROS levels.

“Also recorded” adds a separate entry of the source.

For the molecule “P2P4: SEQ ID NO:5, 60-amino acid fragment spanning amino acids 95-154 of full-length CRP40 (6.6 kDa)”, the “specific binding of [3H]-DA in competition with cold DA (dopamine binding)” value in experiment [1] is “does not bind dopamine at all”. Besides, the “rotational behaviour in the 6-OHDA rat model” value (“rotational behaviour” for short) in experiment [2] is “reduction of rotational behavior; also recorded: alleviate rotational symptoms; also recorded: as effective as full-length CRP40”. Moreover, the “specific binding of [3H]-DA in competition with cold apomorphine (apomorphine binding)” value in experiment [3] was “does not bind; also recorded: do not bind apomorphine”.
Turning to “mortalin: ubiquitously expressed molecular chaperone of 649 amino acids encoded by HSPA9B; positive control in the ATP assay [reference compound]”, in experiment [4], the “preservation of ATP levels and cell viability under proteasomal stress” value was “helps to maintain intracellular ATP levels and energy production; also recorded: partially preserve ATP levels and cell viability”; the “cell viability in basal condition versus normal non-transfected SH-SY5Y cells” value is reported as “significantly lower”. The “ROS levels under oxidative stress versus normal non-transfected SH-SY5Y cells” value in experiment [5] is “partially preserves mitochondrial homeostasis and ROS levels”.

B1: P1P3: SEQ ID NO:2, P1P3 fragment of human CRP40 (11.1 kDa) (protein, listed as Homo sapiens)
chain: MDSSGPKHLNMKLTRAQFEGIVTDLIRRTIAPCQKAMQDAEVSKSDIGEVILVGGMTRMPKVQQTVQDLFGRAPSKAVNPDEAVAIGAAIQGGVLA
As for B1, the “rotational behaviour” value in experiment [2] is “not effective”.

B2: P1P5: SEQ ID NO:4, P1P5 fragment of human CRP40 (27 kDa) (protein, listed as Homo sapiens)
chain: MDSSGPKHLNMKLTRAQFEGIVTDLIRRTIAPCQKAMQEVSKSDIGEVILVGGMTRMPKVQQTVQGLFGRAPSKAVNPDEAVAIGAAIQGGVLAGDVTDVLLLDVTPLSLGIETLGGVFTKLINRNTTIPTKKSQVFSTAADGQTQVEIKVCQGEREMAGDNKLLGQFTLIGIPPAPRGVPQIEVTFDIDANGIVHVSAKDKGTGRERQIVIQSSGGLSKDDIEENMVKNAEKYAEEDRRKKERV
On to B2, for which the “rotational behaviour” value in experiment [2] is “reduction of rotational behavior; also recorded: effective”.

B3: CRP40: SEQ ID NO:1, full-length human catecholamine-regulated protein, 40 kDa molecular chaperone, splice variant of mortalin (protein, listed as Homo sapiens)
chain: MDSSGPKHLNMKLTRAQFEGIVTDLIRRTIAPCQKAMQDAEVSKSDIGEVILVGGMTRMPKVQQTVQDLFGRAPSKAVNPDEAVAIGAAIQGGVLAGDVTDVLLLDVTPLSLGIETLGGVFTKLINRNTTIPTKKSQVFSTAADGQTQVEIKVCQGEREMAGDNKLLGQFTLIGIPPAPRGVPQIEVTFDIDANGIVHVSAKDKGTGREQQIVIQSSGGLSKDDIENMVKNAEKYAEEDRRKKERVEAVNMAEGIIHDTETKMEEFKDQLPADECNKLKEEISKMRELLARKDSETGENIRQAASSLQQASLKLFEMAYKKMASEREGSGSSGTGEQKEDQKEEKQ
Consider B3, for which, in experiment [4], the “preservation of ATP levels and cell viability under proteasomal stress” value was “helps to maintain intracellular ATP levels and energy production; also recorded: partially preserve ATP levels and cell viability”; the “cell viability in basal condition versus normal non-transfected SH-SY5Y cells” value is given as “significantly lower”. Besides, the “ROS levels under oxidative stress versus normal non-transfected SH-SY5Y cells” value in experiment [5] was “partially preserves mitochondrial homeostasis and ROS levels”. Also, the “specific binding of [3H]-DA in competition with cold DA (dopamine binding)” value in experiment [1] was “binds DA with high capacity and low affinity; also recorded: binds dopamine with high capacity and low affinity”. In addition, the “rotational behaviour” value in experiment [2] is given as “alleviate rotational symptoms; also recorded: could correct movement impairments”. The “specific binding of [3H]-DA in competition with cold apomorphine (apomorphine binding)” value in experiment [3] is on record as “binds apomorphine; also recorded: binds dopamine”.

B4: HSP47: heat shock protein 47, a 47 kDa collagen-specific chaperone used as negative control (protein, UniProt P50454 19-418, looked up)
Serpin H1: AEVKKPAAAAAPGTAEKLSPKAATLAERSAGLAFSLYQAMAKDQAVENILVSPVVVASSLGLVSLGGKATTASQAKAVLSAEQLRDEEVHAGLGELLRSLSNSTARNVTWKLGSRLYGPSSVSFADDFVRSSKQHYNCEHSKINFRDKRSALQSINEWAAQTTDGKLPEVTKDVERTDGALLVNAMFFKPHWDEKFHHKMVDNRGFMVTRSYTVGVMMMHRTGLYNYYDDEKEKLQIVEMPLAHKLSSLIILMPHHVEPLERLEKLLTKEQLKIWMGKMQKKAVAISLPKGVVEVTHDLQKHLAGLGLTEAIDKNKADLSRMSGKKDLYLASVFHATAFELDTDGNPFDQDIYGREELRSPKLFYADHPFIFLVRDTQSGSLLFIGRLVRPKGDKMRDEL
On to B4, for which the “rotational behaviour” value in experiment [2] is given as “does not elicit a correction of rotational behaviour”.
